In article PMC7287101:

Biological target: Spt6 (UniProt Q9W420)
Test: anti-Spt6 co-IP, FLAG blot, 150 mM wash
Details: reference: wild type dCENP-A-FLAG; sites S20,S75,S77

- binding against the reference: stronger
Substance: dCENP-A (CID) (from UniProt Q9V6Q2) S20/S75/S77A
